Experimental data reported in patent US20220195061A1 (Novartis, published 2022).

Target: human CD40 on cells (human, UniProt P25942 21-277)
Assay: cell-based or functional assay

Sequence of human CD40 on cells (P25942 21-277 limits assumed): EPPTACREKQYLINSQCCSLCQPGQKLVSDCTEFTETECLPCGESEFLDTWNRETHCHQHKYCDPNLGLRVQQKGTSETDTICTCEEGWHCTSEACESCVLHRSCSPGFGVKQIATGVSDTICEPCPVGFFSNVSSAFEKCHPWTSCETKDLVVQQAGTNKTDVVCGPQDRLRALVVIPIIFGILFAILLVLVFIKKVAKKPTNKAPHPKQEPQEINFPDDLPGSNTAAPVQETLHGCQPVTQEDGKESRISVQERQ

- IC50 (read off the curve), rCD154-induced CD69 expression on CD20pos B cells: ~0.1 µg/mL
B1: CFZ533 (antibody, human IgG1, kappa, N297A)
heavy: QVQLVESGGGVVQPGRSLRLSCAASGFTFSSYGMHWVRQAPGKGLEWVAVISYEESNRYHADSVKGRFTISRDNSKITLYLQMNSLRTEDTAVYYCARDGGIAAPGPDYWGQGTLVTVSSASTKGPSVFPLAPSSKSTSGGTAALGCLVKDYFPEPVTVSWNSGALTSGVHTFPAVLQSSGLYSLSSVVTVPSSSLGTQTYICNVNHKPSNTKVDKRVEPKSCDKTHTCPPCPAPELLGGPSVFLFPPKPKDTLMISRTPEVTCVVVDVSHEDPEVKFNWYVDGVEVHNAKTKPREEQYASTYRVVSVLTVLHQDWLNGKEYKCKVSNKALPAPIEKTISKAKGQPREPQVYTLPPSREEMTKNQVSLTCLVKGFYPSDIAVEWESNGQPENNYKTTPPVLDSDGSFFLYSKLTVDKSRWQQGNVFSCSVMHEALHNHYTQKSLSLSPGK
light: DIVMTQSPLSLTVTPGEPASISCRSSQSLLYSNGYNYLDWYLQKPGQSPQVLISLGSNRASGVPDRFSGSGSGTDFTLKISRVEAEDVGVYYCMQARQTPFTFGPGTKVDIRRTVAAPSVFIFPPSDEQLKSGTASVVCLLNNFYPREAKVQWKVDNALQSGNSQESVTEQDSKDSTYSLSSTLTLSKADYEKHKVYACEVTHQGLSSPVTKSFNRGEC
